From PMC8215210

biological target: T1, His-OpaR (Vibrio parahaemolyticus RIMD2210633) (UniProt Q79YV4); test: DNase I footprinting; settings: Buffer, salt, pH and temperature not given (as in Zhang et al., 2012, 2017); EMSA on 6% polyacrylamide gel; footprinting with 0, 6, 9, 12 pmol His-OpaR
T1 sequence: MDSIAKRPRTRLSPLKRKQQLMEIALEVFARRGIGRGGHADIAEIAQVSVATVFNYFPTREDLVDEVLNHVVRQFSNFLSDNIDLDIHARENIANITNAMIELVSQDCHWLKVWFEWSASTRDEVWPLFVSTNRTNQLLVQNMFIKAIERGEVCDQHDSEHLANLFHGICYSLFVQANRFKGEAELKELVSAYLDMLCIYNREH

Row | Sequence | binding
1 | CTTACCTTGGCGTACCTCTTGCCAATCCGTACTTTCAAATAAATCGCCTTGTCCTTGCATCCCGTTGCCTATTTAAACCATAAAAATTTCAGATAATTATTACCTTTGCAAAGGCTATTGGTTATTCTTGTAGATAATAAGAATTTTAACAATAAAAGAATAATTCTCGTAGTAACGGACGAGCTAGTGGGGAGCTAATGCGTTATTCACCCAGAAAGCAGT (double strand) [VPA0198 footprint probe] | binds
2 | CCATTAAGTGACTTTAGTTCCACTTTTTTAGCTTATTTGATGACATAAGCAACAGTTTCGCCTCCAACCAATAAACAACTGAATACATATTAAAATATTCATTAAATTGACTATTTTTATGATAAACGCTTAATAATAGTTTTATCTATAAACAAACAGTGAGCTTTGTTATAAATTCATTAAAAATTTAACTTTGTATTAATTAGAAAATTCAGCGTCATATTTGTTCAACTGCGA (double strand) [scrA footprint probe] | binds
3 | AGACAATCACACCGATAGCCAGTAAGAAAATCATCACAAAAGGGATGAGTACAGCAGTACGTAGTGTAATTTGAGTCTTTGCAGTAGACATTGCCTAGTCACATTAGGGATGGTTCACCTTAATTGTACTGACATTTCTGTTAATATCGAGCGCTAAGCACTCTCATTGTTAACTCACTGCTTAAGTGACGGTCAGTACAACTCTTTTAACTTTCTGGTTAGCGTATTGCGTCCCCAGCCTAATACTTTAGCGGCATCTTGCTTGTGACCTTTAGTGTG (double strand) [VP0117 footprint probe] | binds
4 | GCTTTTCTAGGCACAAAATGACTTTAGAATGGATTAATGCGAAAGCAATTAAAAAAGTGTGAGTAACGGCTGCAAACTATTGATTTCAATGTCAGGTAACGTACGTGTTCTTGAATGATTAATGACATTTTTATTCATATCATTAAACCAACATGCGGCAAAACCCGCTAACTTTGCACCATATACATCCGTCGTGAGGTGGTCACCAACATGCAAAATGTTTTCGGCAGGTAAATCGAGGAACTGCT (double strand) [VP2979 footprint probe] | binds
5 | CCACTCCTCTTACAAGAATGAGGACGACATCAAGAAAATATTAAAAAATGGATAATTAACCATCGGTTAAGCGTAATAACTAATGACGCTATAAAGTTTTTTGTTATTATCAGTTAATTGTCAGTAGTACATGGACTTAACCGTAGTCGTTTCATGGGAATCTTGGAATCCGATATT (double strand) [VP0699 footprint probe] | binds
6 | GCCATATTCCAAACTCGTTGTGCCTGCCTTTTCAAGAACTGCTGGATAACGGTTACATCAAACCGAACTCAGAATTGAAACAAGCATTTAGCGAACTGTCGCTATATAATGACAATTCAATCATTTTCAGCTGTGGCTCAGGTGTGACTGCCTGTATTTTATTGTTGGCAGCTCATCAACTTGGCTTACGCA (double strand) [VPA1176 footprint probe] | binds
